Assay results taken from patent US6790824B1, “Cytokines having neurotrophic activity” (Biopharm Gesellschaft zur biotechnologischen Entwicklung …, priority 1997, dated 2004).
“Also recorded” adds a separate entry of the source.

Assays:
[1] = system: embryonic chicken dorsal root ganglia (DRG) neurons; test: Survival of dissociated embryonic chick dorsal root ganglia (DRG) neurons, 48 h, counting of surviving neurons; type: cell-based; conditions: for effect on DRG neuron survival when added together with GDF-5: factor at saturating concentration plus GDF-5 20 ng/ml; for survival promoting effect of the single factor: factor added alone, dose-response; for survival effect as share of the (maximal) NGF effect: single factor; for survival of DRG neurons in combination with NGF: NGF 10 ng/ml (saturating); for survival of DRG neurons in combination with NT-3: NT-3 10 ng/ml (saturating)
Procedure: Dissociated cultures of embryonic chicken dorsal root ganglia (DRG) were generated as described in details by Krieglstein and Unsicker (Neurochem. Res., 21(7) (1996) 843-850). Briefly, DRGs from white Leghorn chick embryos (day 8) were dissected in Ca^2+-Mg^2+ free Hanks' balanced salt solution. After incubation in 0.08% trypsin for 15 min ganglia were dissociated by trituration. Cells were seeded in polyomithin-laminin coated 96-well microtiter plates (A/2 Costar) at a density of 1,200 cells/well. Growth factors were applied at the time of plating in a final volume of […] Dulbecco's Modified Eagle's Medium supplemented with 0.25% bovine serum albumin, N1 additives and 100 U/ml penicillin. As a positive control, nerve growth factor (NGF) was used at the saturating concentration of 5 ng/ml. After 48 h of incubation at 37° C. in a humidified atmosphere containing 5% CO2, cultures were fixed with 2.5% glutaraldehyde. Neuronal cells were identified by their phase-bright and neurite-bearing morphologies and counted within 30% of the total surface area using phase contrast microscopy. In the first set of experiments we tested the survival promoting effect of several growth factors of the bone morphogenetic protein family.
(§1) Embryonic chick ciliary (CG), dorsal root (DRG), and sympathetic (SG) ganglia at embryonic day(s) (E) 8, 10, and 12, were dissected, freed from nerve roots and connective tissue and collected in CME. Ganglia were incubated in trypsin (ICN), washed and dissociated by trituration using fire-polished Pasteur pipettes. Cultures were set up in 96-well microtiter plates (Costar, A/2), precoated with poly-L-ornithine and laminin at a density of 1,200-1,500 cells/well in DMEM supplemented with N1 additives, 0.25% BSA, and 0.1% PSN (DME/N1) and incubated at 37° C. in a 5% CO2 incubator.
(§2) At appropriate times (CG: 24 h, DRG: 48 h, SG: 72 h) cultures were fixed by addition of 2.5% glutardialdehyde in phosphate buffered saline (PBS). Numbers of surviving neurons were determined by direct counting of 30% of the surface area using phase contrast microscopy.
Dissociated cultures of embryonic chicken dorsal root ganglia (DRGs) were generated as described in details by Krieglstein and Unsicker (Dev. Brain. Rees. 93 (1996) 10-17). Briefly, DRGs were dissected in Ca^2+-Mg^2+ free Hank's balanced salt solution (CMF). After incubation in 0.08% trypsin (BioWhittaker) for 15 min, ganglia were dissociated by gentle trituration using fire-polished Pasteur pipettes. Cells in suspension (neuron/non-neuron ratio 1:2) were seeded in polyomithin-laminin coated 96-well microtiter plates (A/2 Costar) at a density of 1,200 cells/well. Growth factors were applied at the time of plating in a final volume of 50 μl Dulbecco's Modified Eagle's Medium supplemented with 0.25% bovine serum albumin, N1 additives (Bottenstein et al., Exp. Cell Res. 125 (1980) 183-190) and 100 U/ml penicillin. As a positive control, nerve growth factor (NGF) was used at the saturating concentration of 10 ng/ml. After 48 h of incubation at 37° C. in a humidified atmosphere containing 5% CO2, cultures were fixed with 2.5% glutaraldehyde in phosphate buffered saline (PBS). Neuronal cells were identified by their phase-bright and neurite-bearing morphologies and counted within 30% of the total surface area using phase contrast microscopy. All experiments were performed in at least triplicate in two independent experiments. Data are presented as mean±SEM. Statistical comparisons were made with student's double t-test, ANOVA and MicrocalOrigin software. Differences were considered statistically significant at *P<0.05, **P<0.01, **P<0.001.

[2] = system: chick ciliary ganglionic (CG) neurons; test: Survival of embryonic chick ciliary ganglionic (CG) neurons, 24 h, counting of surviving neurons; type: cell-based; conditions: for CG neuron survival with further addition of TGF-β: TGF-β 2.5 ng/ml, CNTF non-saturating, OSM, LIF, IL-6 at 10 ng/ml
Procedure: as §1, §2
Phosphatidylinositol-specific phospholipase C (PIPLC) is an enzyme that specifically cleaves glycosyl-phosphatidylinositol (GPI) linkages. Embryonic chick ciliary ganglionic neurons (E8) were isolated and seeded as described before. Neurons were incubated for 1 h at 37° C. with 1) 100 mU PIPLC or II) 100 mU PIPLC+2 ng/ml TGFβ or III) without enzyme and then growth factors were added. The number of surviving neurons was determined 24 h later.

Molecule | survival promoting effect of the single factor ([1]; E8 chick DRG, 48 h) | survival effect as share of the (maximal) NGF effect ([1]; E8 chick DRG, 48 h) | survival of DRG neurons in combination with NGF ([1]; E8, 48 h) | survival of DRG neurons in combination with NT-3 ([1]; E8, 48 h) | also measured
neurotrophin-4 (protein, UniProt P34130 81-210, looked up) Neurotrophin-4: GVSETAPASRRGELAVCDAVSGWVTDRRTAVDLRGREVEVLGEVPAAGGSPLRQYFFETRCKADNAEEGGPGAGGGGCRGVDRRHWVSECKAKQSYVRALTADAQGRVGWRWIRIDTACVCTLLSRTGRA | – | – | – | – | effect on DRG neuron survival when added together with GDF-5 ([1]; E8, 48 h): synergistic or additive effects
BMP-6: rh BMP-6, bone morphogenetic protein (protein, UniProt P22004 375-513, looked up) Bone morphogenetic protein 6: SASSRRRQQSRNRSTQSQDVARVSSASDYNSSELKTACRKHELYVSFQDLGWQDWIIAPKGYAANYCDGECSFPLNAHMNATNHAIVQTLVHLMNPEYVPKPCCAPTKLNAISVLYFDDNSNVILKKYRNMVVRACGCH | significant effect | – | – | – | –
BMP-4: rh BMP-4, bone morphogenetic protein (protein, UniProt P12644 293-408, looked up) Bone morphogenetic protein 4: SPKHHSQRARKKNKNCRRHSLYVDFSDVGWNDWIVAPPGYQAFYCHGDCPFPLADHLNSTNHAIVQTLVNSVNSSIPKACCVPTELSAISMLYLDEYDKVVLKNYQEMVVEGCGCR | – | approximately 35% | significantly increased survival of DRG neurons beyond levels maintained by the single factors | – | –
BMP-11: rh BMP-11, bone morphogenetic protein (protein, UniProt O95390 299-407, looked up) Growth/differentiation factor …: NLGLDCDEHSSESRCCRYPLTVDFEAFGWDWIIAPKRYKANYCSGQCEYMFMQKYPHTHLVQQANPRGSAGPCCTPTKMSPINMLYFNDKQQIIYGKIPGMVVDRCGCS | significant effect | – | – | – | –
brain-derived neurotrophic factor (protein, UniProt P23560 19-247, looked up) Neurotrophic factor BDNF …: APMKEANIRGQGGLAYPGVRTHGTLESVNGPKAGSRGLTSLADTFEHVIEELLDEDQKVRPNEENNKDADLYTSRVMLSSQVPLEPPLLFLLEEYKNYLDAANMSMRVRRHSDPARRGELSVCDSISEWVTAADKKTAVDMSGGTVTVLEKVPVSKGQLKQYFYETKCNPMGYTKEGCRGIDKRHWNSQCRTTQSYVRALTMDSKKRIGWRFIRIDTSCVCTLTIKRGR | – | – | – | – | effect on DRG neuron survival when added together with GDF-5 ([1]; E8, 48 h): synergistic or additive effects
BMP-12: rh BMP-12, bone morphogenetic protein (protein, UniProt Q7Z4P5 322-450, looked up) Growth/differentiation factor …: TALAGTRTAQGSGGGAGRGHGRRGRSRCSRKPLHVDFKELGWDDWIIAPLDYEAYHCEGLCDFPLRSHLEPTNHAIIQTLLNSMAPDAAPASCCVPARLSPISILYIDAANNVVYKQYEDMVVEACGCR | significant effect; also recorded: promoted the survival of a very small neuron population | – | significantly increased survival of DRG neurons beyond levels maintained by the single factors | significantly augmented the promoting effect of NT-3 | –
CNTF: recombinant rat (rr) CNTF, established neurotrophic factor for CG neurons (protein, UniProt P20294 1-200, looked up) Ciliary neurotrophic factor: MAFAEQTPLTLHRRDLCSRSIWLARKIRSDLTALMESYVKHQGLNKNINLDSVDGVPVASTDRWSEMTEAERLQENLQAYRTFQGMLTKLLEDQRVHFTPTEGDFHQAIHTLMLQVSAFAYQLEELMVLLEQKIPENEADGMPATVGDGGLFEKKLWGLKVLQELSQWTVRSIHDLRVISSHQMGISALESHYGAKDKQM | – | – | – | – | CG neuron survival with further addition of TGF-β [2]: clearly augmented the efficacy of a non-saturating concentration of CNTF
oncostatin M (protein, UniProt P13725 26-221, looked up) Oncostatin-M: AAIGSCSKEYRVLLGQLQKQTDLMQDTSRLLDPYIRIQGLDVPKLREHCRERPGAFPSEETLRGLGRRGFLQTLNATLGCVLHRLADLEQRLPKAQDLERSGLNIEDLEKLQMARPNILGLRNNIYCMAQLLDNSDTAEPTKAGRGASQPPTPTPASDAFQRKLEGCRFLHGYHRFMHSVGRVFSKWGESPNRSRR | – | – | – | – | CG neuron survival with further addition of TGF-β [2]: did not increase the effects of these cytokines beyond background levels; support of CG neuron survival by the single cytokine ([2]; at 10 ng/ml, without TGF-β): did not support CG neurons
BMP-7: rh BMP-7, bone morphogenetic protein (protein, UniProt P18075 293-431, looked up) Bone morphogenetic protein 7: STGSKQRSQNRSKTPKNQEALRMANVAENSSSDQRQACKKHELYVSFRDLGWQDWIIAPEGYAAYYCEGECAFPLNSYMNATNHAIVQTLVHFINPETVPKPCCAPTQLNAISVLYFDDSSNVILKKYRNMVVRACGCH | – | approximately 35% | – | significantly augmented the promoting effect of NT-3 | –
GDF-5: bone morphogenetic protein like molecule, member of the TGF-β superfamily (protein, UniProt P43026 382-501, looked up) Growth/differentiation factor …: APLATRQGKRPSKNLKARCSRKALHVNFKDMGWDDWIIAPLEYEAFHCEGLCEFPLRSHLEPTNHAVIQTLMNSMDPESTPPTCCVPTRLSPISILFIDSANNVVYKQYEDMVVESCGCR | promoted the survival of a very small neuron population | about 20% | significantly increased survival of DRG neurons beyond levels maintained by the single factors | significantly augmented the promoting effect of NT-3 | neuronal numbers, GDF-5 and NT-3 both at saturating concentrations ([1]; E8 chick DRG, 48 h): failed to increase neuronal numbers significantly above the levels of each single factor; increase in neuronal cell numbers ([1]; E8 chick DRG, 48 h, saturating concentration of 20 ng/ml, vs untreated): approximately two-fold; neuronal cell numbers, GDF-5 added to NGF ([1]; GDF-5 20 ng/ml plus NGF 5 ng/ml, E8, 48 h): significantly increased neuronal cell numbers above values obtained for each single factor; DRG neuron survival with addition of NT-3 ([1]; various concentrations of GDF-5 plus 2.5 ng/ml NT-3, E8, 48 h): significantly increased DRG neuron survival above the NT-3 level
